{
  "source": "paper PMC4627802",
  "about": "“Fine Mapping of the Interaction between C4b-Binding Protein and Outer Membrane Proteins LigA and LigB of Pathogenic Leptospira interrogans” (PLoS Neglected Tropical Diseases, 2015)",
  "molecules": {"B1": {"name": "LigAC (C-terminal fragment of leptospiral immunoglobulin-like protein A, residues 631-1225) (domain or fragment)", "chain": "LTVSNTNAKRGLGSTLKQGTVKVTASMGGIEDSVDFTVTQATLTSIEVSPTRASIAKGMTQKFTATGIFTDHSKKNITEQVTWKSSSKALSMLNAPGEEGTGKAIAVGKTTITATLEKLSGKTDITVTPAVLTSIQISPVKHSLVKGLTEKFSATGIYSDNSNKDITSSVTWHSSNNSVATISNTKGYQGQAYGTGTGTVNIKATLGNVSSQVSKLSVTAAELTEIVLNPTSSHKAKGLTENFKATGVFTDNSTKDITDQVTWKSSNAAYAKISNATGSKGVVNALSKGTSHISATLGSISSANATFQVTPARIASIEVTPNNFFLIKGLSHPFKAIGIYTDNTKTDITKQVSWSSSDPNVASIDNTFSLAGSATAIDDGKTNITATLSDSMSASTTLYVTSAVLIDIEVKPSIFVLSEGLTLQLTATGIYSDHSTHDLTQVVQWTSSKPSNIAIENTAGKKGKVTALAFGDSEFTATYDSIKSNRAWIFVNDEKLVNITISSSQVLTDKGSAQQFKAIGTFQGGSQLDLTDLVTWKSSDSKVVSISNSNDDRGLTTALSVGSSKISAIYGSIHSDSIDFEVTPEILASIKTEP"}},
  "key": {"[1]": {"biological_target": "Human purified C4BP (α7β1) (human) (UniProt P04003)", "experiment": "ELISA; increasing concentrations of Lig proteins with a fixed amount of C4BP (1 μg); Kd estimated by nonlinear regression, Y = Bmax*X/(Kd + X)"}, "[2]": {"biological_target": "LigA10-11 (L. interrogans)", "experiment": "ELISA; Lig tandem-domain constructs immobilised; 1 μg of C4BP mixed with heparin (0-10 mg/ml); detected with mouse monoclonal anti-C4BP α/β chains; binding without heparin set as 100%"}, "[3]": {"biological_target": "LigB9-10 (L. interrogans)", "experiment": "ELISA; Lig tandem-domain constructs immobilised; 1 μg of C4BP mixed with heparin (0-10 mg/ml); detected with mouse monoclonal anti-C4BP α/β chains; binding without heparin set as 100%"}, "[4]": {"biological_target": "LigB7-8 (L. interrogans)", "experiment": "ELISA; Lig tandem-domain constructs immobilised; 1 μg of C4BP mixed with heparin (0-10 mg/ml); detected with mouse monoclonal anti-C4BP α/β chains; binding without heparin set as 100%"}, "[5]": {"biological_target": "LcpA (L. interrogans)", "experiment": "ELISA; LigA, LigB or LcpA immobilised; commercial C4BP in 10 mM Na2HPO4, 1.8 mM KH2PO4 with NaCl 0 to 600 mM; detected with polyclonal rabbit anti-C4BP; binding without NaCl set as 100%"}, "[6]": {"biological_target": "LigBC (fragment of leptospiral immunoglobulin-like protein B, residues 631-1156) (L. interrogans)", "experiment": "ELISA; LigA, LigB or LcpA immobilised; commercial C4BP in 10 mM Na2HPO4, 1.8 mM KH2PO4 with NaCl 0 to 600 mM; detected with polyclonal rabbit anti-C4BP; binding without NaCl set as 100%"}, "[7]": {"biological_target": "T1, Human purified C4BP (α7β1) (human, UniProt P04003 49-597; P20851 18-252)", "T1 construct": "also called C4BP WT (commercial); source: bought: Complement Technology (Texas, USA), human purified; copies: 7 + 1", "T1 sequence 1": "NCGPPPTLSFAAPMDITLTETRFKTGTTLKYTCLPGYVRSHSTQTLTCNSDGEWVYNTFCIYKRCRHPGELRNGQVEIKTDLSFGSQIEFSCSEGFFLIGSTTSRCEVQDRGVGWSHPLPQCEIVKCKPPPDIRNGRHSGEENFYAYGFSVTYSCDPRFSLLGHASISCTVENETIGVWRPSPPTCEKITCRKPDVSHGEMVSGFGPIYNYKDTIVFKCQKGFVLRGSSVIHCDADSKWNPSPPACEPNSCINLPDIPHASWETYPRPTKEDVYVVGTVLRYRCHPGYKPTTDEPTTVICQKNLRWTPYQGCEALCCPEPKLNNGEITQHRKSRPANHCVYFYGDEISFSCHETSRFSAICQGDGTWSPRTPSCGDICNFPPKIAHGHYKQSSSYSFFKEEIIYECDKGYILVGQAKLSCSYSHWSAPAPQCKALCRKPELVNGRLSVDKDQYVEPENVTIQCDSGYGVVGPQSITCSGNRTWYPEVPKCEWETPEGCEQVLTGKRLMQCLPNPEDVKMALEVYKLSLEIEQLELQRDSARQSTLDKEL", "T1 sequence 2": "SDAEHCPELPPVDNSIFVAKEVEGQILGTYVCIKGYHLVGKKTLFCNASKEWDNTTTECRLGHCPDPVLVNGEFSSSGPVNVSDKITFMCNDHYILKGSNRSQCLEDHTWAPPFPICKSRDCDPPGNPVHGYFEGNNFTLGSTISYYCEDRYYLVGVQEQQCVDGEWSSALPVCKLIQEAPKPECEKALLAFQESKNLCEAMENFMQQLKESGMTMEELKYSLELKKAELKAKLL", "experiment": "ELISA; increasing concentrations of Lig proteins with a fixed amount of C4BP (1 μg); Kd estimated by nonlinear regression, Y = Bmax*X/(Kd + X)", "settings": "both partners purified"}},
  "data": [
    {"molecule": "LigBC (fragment of leptospiral immunoglobulin-like protein B, residues 631-1156) (domain or fragment)", "values": [
      {"measurement": "Kd", "setting": "[1]", "value": 0.0516, "unit": "µM"}
    ]},
    {"molecule": "Human purified C4BP (α7β1) (from UniProt P04003 49-597; P20851 18-252) (complex)", "values": [
      {"measurement": "percent reduction of binding with 10 mg/ml heparin", "setting": "[2]", "value": 35, "unit": "%"},
      {"measurement": "percent reduction of binding with 10 mg/ml heparin", "setting": "[3]", "value": 27, "unit": "%"},
      {"measurement": "percent reduction of binding with 10 mg/ml heparin", "setting": "[4]", "value": 45, "unit": "%"},
      {"measurement": "percent decrease of binding at 150 mM NaCl", "setting": "[5]", "value": 30, "unit": "%"},
      {"measurement": "percent decrease of binding at 150 mM NaCl", "setting": "[6]", "value": 45, "unit": "%"}
    ]},
    {"molecule": "B1", "values": [
      {"measurement": "Kd", "setting": "[7]", "value": "0.0888 ± 0.0078", "unit": "µM"}
    ]}
  ]
}
